Measured values reported in the supplement of paper PMC10567573.

Assay: protein stability index of a GFP-peptide fusion (GPS, HEK-293T) (PSI 1-6); higher = more stable
Conditions: parent: NP_006221.1; c terminus: native
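Also: lentivirally expressed fusion library, cells FACS-sorted into six equal-sized GFP/DsRed ratio bins, PSI computed from sequencing read fractions per bin weighted by bin number.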

Going from CQPISFSGFGAEDDDLGGLGLGPM [POLD2 addM] to CQPISFSGFGAEDDDLGGLGLGPD [POLD2 addD], the protein stability index falls from 2.38 to 2.2.

Same assay, conditions: parent: NP_002788.1; c terminus: native

Compared with DGWIRVSSDNVADLHEKYSGSTPM [PSMB5 addM], DGWIRVSSDNVADLHEKYSGSTPD [PSMB5 addD] is higher in protein stability index: 2.89 for the first, 4.37 for the second.

Same assay, conditions: parent: NP_015628.1; c terminus: native

First: EQRNSRWNTVLRAVKAKTHHLEPM [TRPA1 addM]
Second: EQRNSRWNTVLRAVKAKTHHLEPD [TRPA1 addD]
The protein stability index of the first is higher: 4.79 for the first, 3.91 for the second.

Same assay, conditions: parent: NP_009172.2; c terminus: native

First: LPALFTDLYSQEITAEEAREALPD [SNF8 addD]
Second: LPALFTDLYSQEITAEEAREALPM [SNF8 addM]
The protein stability index of the first is higher: 5.09 for the first, 3.04 for the second.

Same assay, conditions: parent: NP_116010.1; c terminus: native

Going from HSLRAVSTDPPHHDHHDEFCLMPM [BEX2 addM] to HSLRAVSTDPPHHDHHDEFCLMPD [BEX2 addD], the protein stability index rises from 3.52 to 4.42.
